# From patent US9097721B2, “Compositions comprising engineered phosphothreonine affinity reagents, methods of making, and methods of use” (The Board of Trustees of the University of Illinois, priority 2012, dated 2015)
# B1: WT: N-terminal FHA1 domain of S. cerevisiae Rad53 protein kinase, residues 1-170 (SEQ ID NO:7) (protein, listed as Saccharomyces cerevisiae)
# chain: MENITQPTQQSTQATQRFLIEKFSQEQIGENIVCRVICTTGQIPIRDLSADISQVLKEKRSIKKVWTFGRNPACDYHLGNISRLSNKHFQILLGEDGNLLLNDISTNGTWLNGQKVEKNSNQLLSQGDEITVGVGVESDILSLVIFINDKFKQCLEQNKVDRIRSNLKNT
# Target: T1, Rad9-pT peptide (Saccharomyces cerevisiae, UniProt P14737)
# T1 construct: host or cells: chemical synthesis
# Experiment: Phage ELISA of phage-displayed FHA1 domains
# Format: binding, yeast
# Conditions: for binding to Rad9-pT peptide when phage-displayed: M13 protein III fusion, DsbA signal sequence; for binding to Rad9-pT peptide when phage-displayed with chaperones: co-expression of dsbA, dsbC, fkpA, skp and surA
# Procedure: To amplify the phage particles displaying the recombinant FHA1 variants, TG1 bacterial cells (5 mL; Stratagene) harboring the phagemid DNA were infected at mid-log (OD600nm=0.5-0.6) with M13K07 helper phage (New England Biolabs) at a multiplicity of infection (MOI) of 20 for 1 h at 37° C. at 150 rpm. Infected cells were centrifuged, and the pellet was resuspended in fresh Luria Bertani medium (LB: 10 g Tryptone, 5 g Yeast extract, and 10 g NaCl per liter) supplemented with 50 μg/mL carbenicillin and 50 μg/ml kanamycin, and phage were amplified overnight at 30° C. at 250 rpm. All of the phage ELISA steps were performed at room temperature. Biotinylated peptides (100 μL, 5 μg/mL) were immobilized on Nunc MaxiSorp flat-bottom 96 well plates (Thermo Fisher Scientific) via NeutrAvidin™ Biotin binding protein (100 μL, 10 μg/mL; Thermo Fisher Scientific) and blocked with 2% skim milk in 1×PBS (200 μL per well). After washing with Phosphate Buffered Saline (PBS: 0.14 M Sodium Chloride, 0.003 M Potassium Chloride, 0.002 M Potassium Phosphate, and 0.01 M Sodium Phosphate), the wells were incubated with the phage supernatant (100 μL of phage diluted 1:2 with PBS containing 0.1% Tween 20 (PBST)) for 1 h and washed three times with PBST. The binding phage were detected using anti-M13 antibody conjugated to horse radish peroxidase (HRP) (GE Healthcare) diluted 1:5000 with PBST. After washing away the unbound antibody, the chromogenic substrate for HRP; 2,2′-Azinobis (3-ethylbenzothiazoline-6-Sulfonic Acid) diammonium salt (Thermo Fisher Scientific), supplemented with hydrogen peroxide was added (100 μL per well), and the absorbance of the green colored complex was measured at 405 nm on POLARstar OPTIMA microtiter plate reader (BMG Labtech).
molecule,measurement,setting,value
B1,binding to Rad9-pT peptide when phage-displayed,,non-functional
same,binding to Rad9-pT peptide when phage-displayed,listed as WT FHA1 domain,did not bind
same,binding to Rad9-pT peptide when phage-displayed,listed as wild-type (WT) FHA1 domain,no binding was detected
same,binding to Rad9-pT peptide when phage-displayed via TorA signal sequence,,only detected when the phage particles were concentrated 50 times
same,binding to Rad9-pT peptide when phage-displayed via TorA signal sequence,listed as WT FHA1 domain,only partially restored
same,binding to Rad9-pT peptide when phage-displayed with chaperones,,remained nonfunctional
same,binding to Rad9-pT peptide when phage-displayed with chaperones,listed as WT FHA1 domain,did not restore the activity
